Reference: patent publication US20220204567A1 (published 2022)

Experiments:
Experiment in all cases: ELISA
[1] = biological target: wild type HA ectodomain of H1 A/Michigan/45/2015 with C-terminal Foldon trimerization domain
[2] = biological target: wild type HA ectodomain of H3 A/Hong Kong/1/1968 with C-terminal Foldon trimerization domain
[3] = biological target: wild type HA ectodomain of H3 A/Indiana/11/2011 with C-terminal Foldon trimerization domain
[4] = biological target: UFV4239, wild type HA ectodomain of H1 A/California/07/2009 without Foldon trimerization domain

B1: CR8020 (antibody, V domains shown)
VH: QVQLQQSGAEVKTPGASVKVSCKASGYTFTSFGVSWIRQAPGQGLEWIGWISAYNGDTYYAQKFQARVTMTTDTSTTTAYMEMRSLRSDDTAVYYCAREPPLFYSSWSLDNWGQGTLVTVSS
VL: EIVLTQSPGTLSLSPGERATLSCRASQSVSMNYLAWFQQKPGQAPRLLIYGASRRATGIPDRISGSGSGTDFTLTISRLEPADFAVYYCQQYGTSPRTFGQGAKVEIK
- EC50 [1]: > 70 nM
- EC50 [2]: 1.6 nM
- EC50 [3]: 1.9 nM
- EC50 [4]: > 70 nM

B2: CR9114 (antibody, V domains shown)
VH: QVQLVQSGAEVKKPGSSVKVSCKSSGGTSNNYAISWVRQAPGQGLDWMGGISPIFGSTAYAQKFQGRVTISADIFSNTAYMELNSLTSEDTAVYFCARHGNYYYYSGMDVWGQGTTVTVSS
VL: SYVLTQPPAVSGTPGQRVTISCSGSDSNIGRRSVNWYQQFPGTAPKLLIYSNDQRPSVVPDRFSGSKSGTSASLAISGLQSEDEAEYYCAAWDDSLKGAVFGGGTQLTVL
- EC50 [2]: 12.7 nM
- EC50 [3]: 25 nM

B3: CR6261 (antibody, V domains shown)
VH: EVQLVESGAEVKKPGSSVKVSCKASGGPFRSYAISWVRQAPGQGPEWMGGIIPIFGTTKYAPKFQGRVTITADDFAGTVYMELSSLRSEDTAMYYCAKHMGYQVRETMDVWGKGTTVTVSS
VL: QSVLTQPPSVSAAPGQKVTISCSGSSSNIGNDYVSWYQQLPGTAPKLLIYDNNKRPSGIPDRFSGSKSGTSATLGITGLQTGDEANYYCATWDRRPTAYVVFGGGTKLTVL
- EC50 [1]: 0.6 nM
- EC50 [2]: > 70 nM
- EC50 [3]: > 70 nM
- EC50 [4]: 1 nM
